T1: human DLL3-his protein (human, UniProt Q9NYJ7 27-492)
T1 construct: also called human DLL3 protein; DLL3 antigen protein; not shown: His tag
T1 sequence: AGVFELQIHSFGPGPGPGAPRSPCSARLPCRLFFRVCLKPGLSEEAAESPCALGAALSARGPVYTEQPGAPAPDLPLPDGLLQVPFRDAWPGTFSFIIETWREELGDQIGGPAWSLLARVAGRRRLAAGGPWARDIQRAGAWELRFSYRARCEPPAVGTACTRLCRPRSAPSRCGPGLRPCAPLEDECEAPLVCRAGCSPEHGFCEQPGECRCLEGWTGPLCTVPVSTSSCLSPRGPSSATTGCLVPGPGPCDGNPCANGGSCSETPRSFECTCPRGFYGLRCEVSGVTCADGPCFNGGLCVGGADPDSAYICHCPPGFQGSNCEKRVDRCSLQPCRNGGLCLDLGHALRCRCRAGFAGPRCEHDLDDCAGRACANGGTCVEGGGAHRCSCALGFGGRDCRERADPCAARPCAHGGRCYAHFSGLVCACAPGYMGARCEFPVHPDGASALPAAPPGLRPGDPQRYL

T2: monkey DLL3 on CHO K1-cyno DLL3 cells (cynomolgus monkey)
T2 construct: also called monkey DLL3 recombinant cell line
T2 chain: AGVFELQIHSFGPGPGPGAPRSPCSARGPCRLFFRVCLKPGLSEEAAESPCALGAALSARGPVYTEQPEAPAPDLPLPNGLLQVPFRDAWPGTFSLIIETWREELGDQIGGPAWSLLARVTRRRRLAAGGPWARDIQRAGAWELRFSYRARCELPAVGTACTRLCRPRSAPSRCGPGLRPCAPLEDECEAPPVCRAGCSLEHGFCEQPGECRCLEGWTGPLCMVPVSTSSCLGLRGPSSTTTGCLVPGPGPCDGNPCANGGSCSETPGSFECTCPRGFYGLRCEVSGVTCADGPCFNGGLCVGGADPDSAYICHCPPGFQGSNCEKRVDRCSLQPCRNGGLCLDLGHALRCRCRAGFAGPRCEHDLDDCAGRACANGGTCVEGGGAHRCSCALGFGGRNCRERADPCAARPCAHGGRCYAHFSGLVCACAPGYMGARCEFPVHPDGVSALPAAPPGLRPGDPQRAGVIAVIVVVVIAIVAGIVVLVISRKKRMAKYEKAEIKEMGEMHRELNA

T3: human DLL1 protein (human, UniProt O00548 18-540, limits assumed)
T3 construct: bought protein; construct and tag not described; also called hDLL1
T3 sequence (looked up): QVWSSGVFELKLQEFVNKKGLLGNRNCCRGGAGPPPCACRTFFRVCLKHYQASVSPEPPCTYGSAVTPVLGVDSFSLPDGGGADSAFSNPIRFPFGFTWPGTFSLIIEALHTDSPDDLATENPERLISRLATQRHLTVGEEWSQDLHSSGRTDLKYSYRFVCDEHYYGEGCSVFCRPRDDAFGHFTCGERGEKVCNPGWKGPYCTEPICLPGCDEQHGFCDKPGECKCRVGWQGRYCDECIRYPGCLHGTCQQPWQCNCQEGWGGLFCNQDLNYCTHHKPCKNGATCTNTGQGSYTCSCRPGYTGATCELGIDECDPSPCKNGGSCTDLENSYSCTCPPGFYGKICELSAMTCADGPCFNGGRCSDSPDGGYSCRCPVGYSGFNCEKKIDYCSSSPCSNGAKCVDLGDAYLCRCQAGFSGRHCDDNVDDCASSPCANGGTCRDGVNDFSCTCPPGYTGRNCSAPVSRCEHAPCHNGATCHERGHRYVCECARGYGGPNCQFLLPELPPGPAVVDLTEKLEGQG

T4: monkey DLL3-his protein (cynomolgus monkey, UniProt Q9NYJ7 27-490 (human entry))
T4 construct: a bought cynomolgus DLL3-His (Acro DL3-C52H3) is also named; also called monkey DLL3 protein; cynomolgus monkey DLL3-His; not shown: His tag
T4 chain: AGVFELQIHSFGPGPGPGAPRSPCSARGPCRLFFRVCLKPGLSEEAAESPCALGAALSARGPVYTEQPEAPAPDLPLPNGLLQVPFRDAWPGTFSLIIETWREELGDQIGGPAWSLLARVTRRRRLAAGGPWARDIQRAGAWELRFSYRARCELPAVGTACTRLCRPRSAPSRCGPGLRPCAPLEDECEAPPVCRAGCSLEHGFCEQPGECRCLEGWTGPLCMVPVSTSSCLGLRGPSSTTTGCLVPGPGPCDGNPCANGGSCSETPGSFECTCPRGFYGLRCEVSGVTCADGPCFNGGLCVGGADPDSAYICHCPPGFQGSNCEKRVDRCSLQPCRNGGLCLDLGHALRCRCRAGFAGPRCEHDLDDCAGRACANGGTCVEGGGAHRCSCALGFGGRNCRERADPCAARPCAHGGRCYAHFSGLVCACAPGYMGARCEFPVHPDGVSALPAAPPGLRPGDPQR

T5: human DLL3 protein (extracellular segment, His tag) (human, UniProt Q9NYJ7 27-492)
T5 construct: also called human DLL3-his protein; DLL3 antigen; not shown: His tag
T5 sequence: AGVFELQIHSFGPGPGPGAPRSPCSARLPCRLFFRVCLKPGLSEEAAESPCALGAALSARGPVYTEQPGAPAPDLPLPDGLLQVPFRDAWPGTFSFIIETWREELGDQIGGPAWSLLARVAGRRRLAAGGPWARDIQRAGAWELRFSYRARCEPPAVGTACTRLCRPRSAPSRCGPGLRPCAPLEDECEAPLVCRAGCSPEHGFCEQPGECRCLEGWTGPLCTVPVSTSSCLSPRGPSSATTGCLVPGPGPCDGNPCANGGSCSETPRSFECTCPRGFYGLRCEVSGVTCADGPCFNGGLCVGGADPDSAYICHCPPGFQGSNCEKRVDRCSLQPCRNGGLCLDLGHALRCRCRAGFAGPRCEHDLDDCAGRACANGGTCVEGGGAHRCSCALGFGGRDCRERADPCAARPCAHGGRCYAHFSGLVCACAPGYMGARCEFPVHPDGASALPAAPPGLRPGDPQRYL


Assays:
[1] = molecular target: T1, human DLL3-his protein; assay: SPR Biacore 8K, antibody captured on Protein A
[2] = molecular target: T2, monkey DLL3 on CHO K1-cyno DLL3 cells; assay: FACS, CHO K1-cyno DLL3 cells
[3] = molecular target: T1, human DLL3-his protein; assay: ELISA
[4] = molecular target: T6, human DLL4 protein (human, UniProt Q9NR61 27-524, limits assumed); assay: ELISA, maximum over 0.1-100 nM
T6 construct: bought protein; construct and tag not described; also called hDLL4

[5] = molecular target: T3, human DLL1 protein; assay: ELISA, maximum over 0.1-100 nM
[6] = molecular target: T1, human DLL3-his protein; assay: ELISA, coated DLL3-his
[7] = molecular target: T4, monkey DLL3-his protein; assay: ELISA, coated DLL3-his
[8] = molecular target: T5, human DLL3 protein (extracellular …); assay: SPR (Biacore 8K), antibody captured on Protein A chip, DLL3 antigen in solution, 1:1 Langmuir fit

T6 sequence (Q9NR61 27-524 limits assumed): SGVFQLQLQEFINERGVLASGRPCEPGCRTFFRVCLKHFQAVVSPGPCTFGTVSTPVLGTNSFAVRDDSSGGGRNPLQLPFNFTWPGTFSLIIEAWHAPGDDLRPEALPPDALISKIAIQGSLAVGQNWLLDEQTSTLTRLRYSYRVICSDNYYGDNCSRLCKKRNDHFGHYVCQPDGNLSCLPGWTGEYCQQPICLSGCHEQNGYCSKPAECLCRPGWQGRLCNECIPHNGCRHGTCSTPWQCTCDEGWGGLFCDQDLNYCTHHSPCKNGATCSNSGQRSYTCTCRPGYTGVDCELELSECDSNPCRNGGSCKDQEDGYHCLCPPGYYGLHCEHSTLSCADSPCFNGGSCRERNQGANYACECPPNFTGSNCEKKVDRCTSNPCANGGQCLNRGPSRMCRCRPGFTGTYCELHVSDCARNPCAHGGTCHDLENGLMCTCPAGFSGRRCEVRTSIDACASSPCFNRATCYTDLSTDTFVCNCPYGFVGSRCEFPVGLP

Row | Binder | binding result [2] | binding result [3] | Emax of OD450 nm binding value [4] | Emax of OD450 nm binding value [5] | also measured
1 | Hab015VL4VH6b-hFc (Fc fusion, humanized mab015, VL-linker-VH-human IgG1 Fc; also called Hab015L4H6b; not shown: linker; human IgG1 Fc fragment) scFv (part 1 of 2): NIVLTQSPATLSLSPGERATLSCKASENVGTYVSWFQQKPGQSPRLLIYGASNRYTGIPARFSGSGSGTDFTLTISSLEPEDFAVYYCGQFYSFPSTFGGGTKVEIK scFv (part 2 of 2): EVQLVESGGGLVKPGGSLRLSCAASGITFSNFWMNWVRQAPEKGLEWVGQIRLKSDQYATHYAESVKGRFTISREDSKNTVYLQMNSLKTEDTAVYYCTTGYYFDYWGQGTTVTVSS | – | – | – | – | binding result [1]: binds
2 | mab014 scFv-hFc (Fc fusion, human-murine chimeric scFv-hFc, VL-linker-VH-human IgG1 Fc; not shown: linker; Fc fragment of human IgG1) scFv (part 1 of 2): DIQMTQSSSSFSVSLGDRVTITCKASEDIYNRLAWYQQKPGNTPRLLISGATSLETGVPSRFSGSGSGKDFTLSITSLQTEDVATYYCQQYWSLPWTFGGGTKLEIK scFv (part 2 of 2): EVQLHQSGPELVKPGTSVKISCKASGYTFTDYYMNWVKQSHGKSLEWIGDINPNHGDTGYNQKFTGKATLTVDKSSSTAYMELRSLTSEDSAVYYCARNFFYYGTTYGWYFDVWGTGTTVTVSS | binds | binds | 0.06 OD450 | 0.08 OD450 | –
3 | mab006 scFv-hFc (Fc fusion, human-murine chimeric scFv-hFc, VL-linker-VH-human IgG1 Fc; not shown: linker; Fc fragment of human IgG1) scFv (part 1 of 2): DVQITQSPSYLAASPGETITINCRATKSISKYLAWYQEKPGKTNKLLIFSGSTLQSGIPSRFRGSGSGTDFTLTISSLEPEDFAMYYCQQHHEYPYTFGGGTKLEIK scFv (part 2 of 2): QVQLQQPGAELVRPGTSVKLSCKASGYTFTSYWMHWVRQRPGQGLEWIGVIDPSDSLANYNQEFKGKATLTVDTSSSTAYMQLSSLTSEDSAVYYCARDSTVVAPMDYWGQGTSVTVSS | binds | binds | 0.07 OD450 | 0.08 OD450 | –
4 | mab007 scFv-hFc (Fc fusion, human-murine chimeric scFv-hFc, VL-linker-VH-human IgG1 Fc; not shown: linker; Fc fragment of human IgG1) scFv (part 1 of 2): DVQITQSPSYLAASPGETITINCRASTSISKYLAWYQERPGKTNKLLIYSGSTLQSGIPSRFRGSGSGTDFTLTISSLEPEDFAMYYCQQHHVYPYTFGGGTKLEIK scFv (part 2 of 2): QVQLQQPGAELVRPGTSVKLSCKASGYTFTSYWMHWVKQRPGQGLEWIGVIDPSDSLANYNQEFKGKATLTVDTSSSTAYMQLSSLTSEDSAVYYCARDSTVVAPMDYWGQGTSVTVSS | binds | binds | 0.06 OD450 | 0.07 OD450 | –
5 | SC16.56 (antibody, human IgG1, kappa, V domains shown, expressed in the complete IgG format; variable regions from US20200138969A1; also called control antibody) VH: QVQLVQSGAEVKKPGASVKVSCKASGYTFTNYGMNWVRQAPGQGLEWMGWINTYTGEPTYADDFKGRVTMTTDTSTSTAYMELRSLRSDDTAVYYCARIGDSSPSDYWGQGTLVTVSS VL: EIVMTQSPATLSVSPGERATLSCKASQSVSNDVVWYQQKPGQAPRLLIYYASNRYTGIPARFSGSGSGTEFTLTISSLQSEDFAVYYCQQDYTSPWTFGQGTKLEIKR | – | – | – | – | binding result [6]: binds; binding result [7]: binds
6 | BI3 (antibody, human IgG1, kappa, V domains shown, control antibody in complete IgG format, variable regions from WO2019234220A1) VH: QVQLVQSGAEVKKPGASVKVSCKASGYTFTSYYVHWVRQAPGQGLEWMVIINPGGGTTSYAQKFLGRVTMTRDTSTNTVYMELKSLRSEDTAVYYCARGEAVTGNYFYYGMDVWGQGTTVTVSS VL: DIQMTQSPSAMSASVGDRVTITCRASQGISNYLVWFQQKPGKAPKRLIYAVSSLYSGVPSRFSGSGSGTEFTLTISSLQPEDFATYYCLQHDSYPYTFGQGTKLEIKR | – | – | – | – | Kd [8]: 49.7 pM; koff [8]: 4.7e-05 s⁻¹; kon [8]: 945000 M⁻¹ s⁻¹
7 | BI3 (antibody, human IgG1, kappa, V domains shown, expressed in the complete IgG format; variable regions from WO2019234220A1; also called control antibody) VH: QVQLVQSGAEVKKPGASVKVSCKASGYTFTSYYVHWVRQAPGQGLEWMVIINPGGGTTSYAQKFLGRVTMTRDTSTNTVYMELKSLRSEDTAVYYCARGEAVTGNYFYYGMDVWGQGTTVTVSS VL: DIQMTQSPSAMSASVGDRVTITCRASQGISNYLVWFQQKPGKAPKRLIYAVSSLYSGVPSRFSGSGSGTEFTLTISSLQPEDFATYYCLQHDSYPYTFGQGTKLEIKR | – | – | – | – | binding result [7]: binds

The next lines start with results.

Row | binding result [2] | binding result [3] | Emax of OD450 nm binding value [4] | Emax of OD450 nm binding value [5] | Binder | also measured
8 | binds | binds | 0.08 OD450 | 0.09 OD450 | mab008 scFv-hFc (Fc fusion, human-murine chimeric scFv-hFc, VL-linker-VH-human IgG1 Fc; not shown: linker; Fc fragment of human IgG1) scFv (part 1 of 2): DIVMTQSQKFMSTSVGDRVSITCKASQNVGTAVAWYQQKPGQSPKLLIFSASIRYTGVPDRFTGSGSGTDFTLTISNMQSEDLADYFCQQYSSSPYTFGGGTKLEIK scFv (part 2 of 2): EVQLQQSGPVLVKPGASVKMSCKASGYTFTDYYMNWVKRSHGKSLEWIGIINPYNGGTSYNQKFRGKATLTVDKSSNTAYMELNSLTSEDSAVYYCSRYDYDYDVEGAMDYWGQGTSVTVSS | –
9 | binds | binds | 0.08 OD450 | 0.08 OD450 | mab012 scFv-hFc (Fc fusion, human-murine chimeric scFv-hFc, VL-linker-VH-human IgG1 Fc; not shown: linker; Fc fragment of human IgG1) scFv (part 1 of 2): DVLMTQTPLSLPVSLGDQASISCRSSQSIVHSDGNTYLEWYLQKPGQSPKLLIYKVSNRFSGVPDRFSGSGSGTDFTLKISRVEAEDLGFYYCFQGSHVPFTFGSGTKLEIK scFv (part 2 of 2): QVQLQQSGPELVKPGASVKISCKASGYTFTDYYIHWVKQRPGQGLEWIGWTLPGSGSPYYNEKFKGKATLTVDKSSSTAYMLLSSLTSEDSAVYFCARWHYYYGSSYHFDYWGQGTTLTVSS | –
10 | binds | binds | 0.04 OD450 | 0.05 OD450 | mab005 scFv-hFc (Fc fusion, human-murine chimeric scFv-hFc, VL-linker-VH-human IgG1 Fc; not shown: linker; Fc fragment of human IgG1) scFv (part 1 of 2): DIVLTQSPATLSVTPGDSVSLSCRASQSVSNDLHWYQQKSHESPRLLIKYASQSISGIPSRFSGSGSGTDFTLTINSVETEDFGMYFCQQSNNWPYTFGGGTKLEMK scFv (part 2 of 2): QVQLQQSGAELMKPGASVTLSCKATGYTLPGYWIEWVKQRPGHGLEWIGEILPGSSSANYNEKFKGKATFTADTSSNTAYMQLSSLTTEDSAIYYCASTYGTSLDYWGQGTTLTVSS | –

From patent publication EP4786492A1 (Simcere Zaiming Pharmaceutical Co., Ltd., dated 2026)
